Test results: article PMC3715500

Biological target: Rac-GFP (UniProt P63000)
Experiment: FRET or BRET; FLIM-FRET (donor lifetime, time-gated fast-FLIM prototype, five gates of 2.25 ns, up to 1 FLIM image per s) in living 3T3 cells co-transfected with donor Rac-GFP and acceptor PBD-mCherry or mCherry alone; analysed by mfD, polar approach and moments method

PBD-mCherry (domain or fragment), sequence (Q13153 2-545): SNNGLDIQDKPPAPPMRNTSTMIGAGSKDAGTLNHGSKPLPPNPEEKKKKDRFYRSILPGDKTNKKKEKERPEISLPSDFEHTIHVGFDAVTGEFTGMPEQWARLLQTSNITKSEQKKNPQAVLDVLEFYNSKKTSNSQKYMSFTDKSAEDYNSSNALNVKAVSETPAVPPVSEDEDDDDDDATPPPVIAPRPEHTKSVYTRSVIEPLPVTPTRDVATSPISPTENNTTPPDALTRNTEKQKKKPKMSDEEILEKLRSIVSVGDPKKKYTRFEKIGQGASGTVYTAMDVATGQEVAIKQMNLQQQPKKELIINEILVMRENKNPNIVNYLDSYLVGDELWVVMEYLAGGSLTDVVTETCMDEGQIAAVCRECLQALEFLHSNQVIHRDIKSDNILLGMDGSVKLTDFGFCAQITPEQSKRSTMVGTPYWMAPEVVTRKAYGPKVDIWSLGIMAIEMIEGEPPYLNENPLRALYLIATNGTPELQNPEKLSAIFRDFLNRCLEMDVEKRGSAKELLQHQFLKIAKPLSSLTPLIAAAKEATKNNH

- mean donor lifetime <τ> (population of cells, n = 10): 2.37 ns
- mean donor lifetime <τ> (single cell, corrected): 2.21
- minimal fraction of interacting donor mfD (representative cell): 0.19
- non-corrected average donor lifetime (representative cell): 2.3 ns
Substance: PBD-mCherry (domain or fragment)
